These results are taken from patent US20070071746A1 (AstraZeneca / MedImmune, published 2007).

In assay [1] the target is T1, mouse acidic mammalian chitinase (AMCase), full length (mouse, UniProt Q91XA9 22-473).
T1 construct: Recombinant, secreted from HEK293 cells and purified by its His tag; Biotin labeled in the galectin ELISA; also called mAMCase; mouse AMCase
Kind of assay: ELISA (data not shown).

The target in assay [2] is T2, human AMCase C-terminally truncated, lacking the chitin binding domain (human, UniProt Q9BZP6 22-398, limits assumed).
T2 construct: Biotin labeled in the galectin ELISA; also called hAMCase TR
Kind of assay: ELISA: galectin immobilised on the plate, serial dilutions of biotin-labelled C-terminally truncated human AMCase, A450. The procedure: C/CLP-Galectin Interaction ELISA: Galectin is immobilized on a microtiter plate in DPBS over night at 2-8° C. The plates are then washed with DPBS, 0.1% Tween 20 and blocked for 1 hour at room temperature. Serial dilutions of biotin labeled AMCase are added to each well and incubated for ˜1 hour at room temperature followed by HRP labeled streptavidin. Horseradish peroxydase activity is detected with TMB substrate (KPL, MD) and the reaction is quenched with 1% H2SO4. The absorbance is read at 450 nm.

T1 sequence (Q91XA9 other isoform, or with tags, fused parts or gaps limits assumed): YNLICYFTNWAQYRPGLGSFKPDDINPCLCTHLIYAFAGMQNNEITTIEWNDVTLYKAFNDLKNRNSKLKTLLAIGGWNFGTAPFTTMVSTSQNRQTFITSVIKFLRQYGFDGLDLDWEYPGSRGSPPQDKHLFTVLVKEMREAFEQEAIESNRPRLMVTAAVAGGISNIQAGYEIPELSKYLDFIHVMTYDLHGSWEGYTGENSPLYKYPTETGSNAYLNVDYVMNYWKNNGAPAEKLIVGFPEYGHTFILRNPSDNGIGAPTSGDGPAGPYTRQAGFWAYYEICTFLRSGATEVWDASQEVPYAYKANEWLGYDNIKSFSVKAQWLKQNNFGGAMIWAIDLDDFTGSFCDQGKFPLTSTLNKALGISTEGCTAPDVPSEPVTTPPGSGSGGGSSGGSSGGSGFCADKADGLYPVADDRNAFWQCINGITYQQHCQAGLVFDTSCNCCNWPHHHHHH
T2 sequence (Q9BZP6 22-398 limits assumed): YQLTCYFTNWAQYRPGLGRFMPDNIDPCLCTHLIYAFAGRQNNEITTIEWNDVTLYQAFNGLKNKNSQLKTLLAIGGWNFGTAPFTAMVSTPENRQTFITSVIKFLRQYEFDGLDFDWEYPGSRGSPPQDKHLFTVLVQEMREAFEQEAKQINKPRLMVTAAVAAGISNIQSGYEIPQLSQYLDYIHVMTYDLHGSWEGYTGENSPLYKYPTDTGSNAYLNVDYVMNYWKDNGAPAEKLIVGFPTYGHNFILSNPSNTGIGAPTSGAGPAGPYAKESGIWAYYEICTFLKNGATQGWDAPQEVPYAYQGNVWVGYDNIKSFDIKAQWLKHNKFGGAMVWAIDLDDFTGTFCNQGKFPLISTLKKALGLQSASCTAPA

B1: mouse galectin-3 (other, UniProt P16110 2-264, looked up)
chain: ADSFSLNDALAGSGNPNPQGYPGAWGNQPGAGGYPGAAYPGAYPGQAPPGAYPGQAPPGAYPGQAPPSAYPGPTAPGAYPGPTAPGAYPGQPAPGAFPGQPGAPGAYPQCSGGYPAAGPYGVPAGPLTVPYDLPLPGGVMPRMLITIMGTVKPNANRIVLDFRRGNDVAFHFNPRFNENNRRVIVCNTKQDNNWGKEERQSAFPFESGKPFKIQVLVEADHFKVAVNDAHLLQYNHRMKNLREISQLGISGDITLTSANHAMI
notes: also called mGal-3
Take B1: the binding result in assay [1] is recorded as “binds”.

B2: galectin 8 (other, UniProt O00214 1-317, looked up)
chain: MMLSLNNLQNIIYNPVIPFVGTIPDQLDPGTLIVIRGHVPSDADRFQVDLQNGSSMKPRADVAFHFNPRFKRAGCIVCNTLINEKWGREEITYDTPFKREKSFEIVIMVLKDKFQVAVNGKHTLLYGHRIGPEKIDTLGIYGKVNIHSIGFSFSSDLQSTQASSLELTEISRENVPKSGTPQLRLPFAARLNTPMGPGRTVVVKGEVNANAKSFNVDLLAGKSKDIALHLNPRLNIKAFVRNSFLQESWGEEERNITSFPFSPGMYFEMIIYCDVREFKVAVNGVHSLEYKHRFKELSSIDTLEINGDIHLLEVRSW
notes: also called LGALS8
As to B2, in assay [2], the binding result is “no binding (tested: 10 ug/ml)”.

B3: mouse galectin-4 (other, UniProt Q8K419 1-326, looked up)
chain: MAYVPAPGYQPTYNPTLPYKRPIPGGLSVGMSVYIQGMAKENMRRFHVNFAVGQDDGADVAFHFNPRFDGWDKVVFNTMQSGQWGKEEKKKSMPFQKGKHFELVFMVMPEHYKVVVNGNSFYEYGHRLPVQMVTHLQVDGDLELQSINFLGGQPAAAPYPGAMTIPAYPAGSPGYNPPQMNTLPVMTGPPVFNPRVPYVGALQGGLTVRRTIIIKGYVLPTARNFVINFKVGSSGDIALHLNPRIGDSVVRNSFMNGSWGAEERKVAYNPFGPGQFFDLSIRCGMDRFKVFANGQHLFDFSHRFQAFQMVDTLEINGDITLSYVQI
notes: also called mGal-4
As to B3, the binding result in assay [1] is on record as “binds”.
